Data taken from patent US11912782B2, “BCMA monoclonal antibody-drug conjugate” (MedImmune, LLC, priority 2017, dated 2024).
Entries after “also recorded” stand apart in the source; their conditions may differ.

T1: monomeric human sBCMA (Homo sapiens, UniProt Q02223)
T1 construct: is comprised of the entire extracellular domain of the molecule; purchased GenScript
T1 sequence (Q02223 1-54 limits assumed): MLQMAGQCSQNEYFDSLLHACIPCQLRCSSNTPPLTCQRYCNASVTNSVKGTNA

T2: TACI (Homo sapiens, UniProt O14836)
T2 construct: expressed in transfected cells
T2 sequence (O14836 1-293): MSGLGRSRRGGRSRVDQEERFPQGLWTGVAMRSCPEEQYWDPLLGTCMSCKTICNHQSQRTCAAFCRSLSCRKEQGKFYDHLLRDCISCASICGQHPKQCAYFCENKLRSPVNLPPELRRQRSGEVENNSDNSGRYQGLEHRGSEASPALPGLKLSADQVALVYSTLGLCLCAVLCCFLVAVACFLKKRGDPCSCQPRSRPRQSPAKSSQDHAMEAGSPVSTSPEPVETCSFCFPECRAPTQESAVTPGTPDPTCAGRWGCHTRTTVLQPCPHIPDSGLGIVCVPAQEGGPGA

T3: BAFF-R (Homo sapiens, UniProt Q96RJ3)
T3 construct: expressed in transfected cells
T3 sequence (Q96RJ3 1-184): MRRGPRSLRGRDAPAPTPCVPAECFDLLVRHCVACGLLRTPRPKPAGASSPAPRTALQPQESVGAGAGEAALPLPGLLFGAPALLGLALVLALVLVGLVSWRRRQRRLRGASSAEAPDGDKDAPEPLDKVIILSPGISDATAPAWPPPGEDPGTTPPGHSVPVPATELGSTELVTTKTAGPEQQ


How the values were obtained:
[1] = system: MM.1S xenograft; test: MM.1S subcutaneous xenograft model (Example 5); type: in vivo, mouse; details: single intravenous dose 1 mg/kg, observed for 99 days post tumor implantation
Source text: (§1) Subcutaneous xenograft mouse models of multiple myeloma and plasma cell leukemia were generated by implanting BCMA-expressing multiple myeloma or plasma cell leukemia cell lines (i.e., NCI-H929, JJN-3, MM.1S, and MM.1R) into female CB-17 SCID (C.B-17/IcrHsd-Prkdc-scid) or athymic nude (Foxn1^nu) mice using MATRIGEL™ (BD Biosciences, San Jose, Calif.). Once tumors reached approximately 180 mm^3 (NCI-H929 cells), 190 mm^3 (JJN3 cells), 160 mm^3 (MM.1S cells), or 175 mm^3 (MM.1R cells), mice were randomized based on tumor size and placed into dosing groups and treated with BCMA-targeting ADCs as described below.
Mice were treated with either a single intravenous dose of 15B2GL-SG3249, 109-SG3249, L15-SG3249 ADCs at 1 mg/kg or dosed intravenously with J6M0-mc-MMAF twice weekly at a dose of 1 mg/kg for 4 weeks. Control mice were left untreated.

[2] = system: MM stem cells (clonogenic cells in MM bone marrow biopsies); test: Clonogenic (colony formation) assay on MM patient bone marrow samples; type: cell-based, human
Protocol: In particular, cells were counted using a ViCELL™ counter (Beckmann-Coulter Life Sciences, Indianapolis, Ind.) and resuspended in IMDM+2% FBS at 10-fold higher density than required for plating. METHOCULT™ H4434 Classic (StemCell Technologies, Inc., Vancouver, BC, Canada) was mixed with 2000 cells per mL for MM263, MM284, and MM276, and 4000 cells per mL for MM277 following the manufacturer's instructions. 25-400 ng per mL of the test ADCs 15B2GL-SG3249 and J6M0-mc-MMAF was then added to appropriate tubes. A control IgG1-SG3249 antibody was added at only the high dose of 400 ng per mL. All tubes were vortexed thoroughly to mix and then allowed to sit undisturbed, allowing air bubbles to rise to the top. Once the bubbles had risen, 400 μL was removed with a 16-guage blunt end needle and carefully plated into one well of a 24-well ultralow attachment plate (VWR, Radnor, Pa.). Each treatment was plated in duplicate in the inner wells of the plate. PBS was added to the outer wells and the plate was incubated at 37° C. for 7-10 days. Colonies were counted by eye with documentation of colony formation by scanning plates on a Celigo® Image Cytometer (Nexcelom Biosciences, Lawrence, Mass.).

[3] = system: MM.1R xenograft; test: MM.1R subcutaneous xenograft model; type: in vivo, mouse; details: single intravenous dose 1 mg/kg, observed for 109 days post tumor implantation
Source text: as §1
Mice were treated with either a single intravenous dose of 15B2GL-SG3249 at 1 mg/kg or dosed intravenously with J6M0-mc-MMAF weekly at a dose of 3 mg/kg for 4 weeks. Control mice were left untreated.

[4] = system: MM.1S cells; test: Cell killing in the presence of soluble BCMA (conditioned media from Ad293 cells expressing human BCMA); type: cell-based; details: MM.1S and NCI-H929, sBCMA at levels up to 720 ng/mL
Protocol: (§2) Killing of multiple myeloma and plasma cell leukemia cell lines by antibody-drug conjugates comprising 15B2GL, or affinity-optimized clones thereof, conjugated to SG3249 was evaluated in vitro using the protocol recommended in the CELLTITER-GLO® kit (Promega, Madison, Wis.). Killing of multiple myeloma and plasma cell leukemia cell lines by the free warhead SG3199 also was evaluated using the protocol recommended in the CELLTITER-GLO® kit (Promega, Madison, Wis.). Briefly, 5×10^3 cells in 80 μL RPMI+10% FBS were added to the inner wells of white-walled 96-well plates (Corning® Costar®, Fisher Scientific, Waltham, Mass.). The following BCMA-expressing cell lines were tested: NCI-H929, EJM, MM.1R. JJN3, OPM-2, MM.1S, U266.B1, and L363. BMCA-negative cell lines Raji and Jurkat also were tested. The antibody-drug conjugates were diluted to a 5× stock (2.5 μg/mL) in RPMI+10% FBS. Treatments were then serially diluted 1:3 in RPMI+10% FBS. 20 μL of this series was added to the cells in duplicate, resulting in a 12-point dose curve of antibody-drug conjugate ranging from 0.5 μg/mL at the highest concentration to 3×10^−6 vg/mL at the lowest. Isotype antibody-drug conjugate (IgG1-SG3249 and IgG1-mc-MMAF) and media-only controls also were included. Plates were incubated at 37° C., 5% CO2 for 96 hours. At the end of the incubation period, 100 μL of the Substrate Solution (Promega, Madison Wis.) was added to each well. Luminescence was measured using an EnVision™ Multilabel plate reader (Perkin Elmer, Waltham, Mass.). Data were analyzed and graphed using GraphPad Prism™ software (GraphPad Software, Inc., La Jolla, Calif.), and the half-maximal inhibitory concentration (IC50) was determined.
The ability of the 15B2GL-SG3249 ADC to kill multiple myeloma cells in vitro in the presence of soluble BCMA (sBCMA) as compared to the I09-5G3249 ADC was evaluated in MM.1S cells using the protocol described above, except that tested cell lines also were treated with BCMA-containing conditioned media collected from Ad293 cells expressing human BCMA (FIGS. 3A and 3B). 15B2GL-SG3249 ADC cell killing in the presence of sBCMA also was compared to ADCs comprising the anti-BCMA antibody J6M0, which is described in U.S. Pat. No. 9,273,141.

[5] = system: NCI-H929 xenograft; test: NCI-H929 subcutaneous xenograft model (Example 5); type: in vivo, mouse; details: single intravenous dose 0.3 mg/kg, observed for 99 days post tumor implantation
Source text: as §1
Mice were treated with either a single intravenous dose of the ADCs 15B2GL-SG3249, I09-5G3249, L15-SG3249 at 0.3 mg/kg or dosed intravenously with J6M0-mc-MMAF weekly at a dose of 0.3 mg/kg for 2 weeks. Control mice were left untreated.

[6] = system: Jurkat; test: In vitro cytotoxicity, CELLTITER-GLO, 96 hours (BCMA-negative line); type: cell-based; details: T-lymphocyte, BCMA receptor number 0
Protocol: as §2, with “20 μL of this series was added to the cells in duplicate, resulting in a 12-point dose curve of antibody-drug conjugate ranging from 0.5 μg/mL at the highest concentration to 3×10^−6 vg/mL at the lowest. Isotype antibody-drug conjugate (IgG1-SG3249 and IgG1-mc-MMAF) and media-only controls also were included. Plates were incubated at 37° C., 5% CO2 for 96 hours. At the end of the incubation period, 100 μL of the Substrate Solution (Promega, Madison Wis.) was added to each well.” left out

[7] = system: Raji; test: as above; type: cell-based; details: Burkitt's lymphoma, BCMA receptor number 0
Protocol: as §2, with “20 μL of this series was added to the cells in duplicate, resulting in a 12-point dose curve of antibody-drug conjugate ranging from 0.5 μg/mL at the highest concentration to 3×10^−6 vg/mL at the lowest. Isotype antibody-drug conjugate (IgG1-SG3249 and IgG1-mc-MMAF) and media-only controls also were included. Plates were incubated at 37° C., 5% CO2 for 96 hours. At the end of the incubation period, 100 μL of the Substrate Solution (Promega, Madison Wis.) was added to each well.” left out

[8] = system: JJN3 xenograft; test: JJN3 subcutaneous xenograft model; type: in vivo, mouse; details: single intravenous dose 1 mg/kg, observed for 104 days post tumor implantation
Source text: as §1
Mice were treated with either a single intravenous dose of 15B2GL-SG3249, 109-SG3249, and L15-SG3249 ADCs at 1 mg/kg, or dosed intravenously with J6M0-mc-MMAF ADC weekly at a dose of 1 mg/kg for 3 weeks. Control mice were left untreated.

[9] = target: T1, monomeric human sBCMA; test: Kinetics/affinity measurement by SPR (BioRad ProteOn XPR36), antibody captured by anti-Fc, sBCMA flowed over; type: binding; details: sBCMA 100-6.25 nM
Protocol: The binding of 15B2GL monoclonal antibody and optimized clones I09, L15, P10, N22, and M02 (described in Example 1) was assessed using monomeric human sBCMA (GenScript, Piscataway, N.J.) using a ProteOn™ XPR36 instrument (Bio-Rad, Hercules, Calif.). The binding of J6M0 also was assessed for comparison. Standard amine coupling was used to immobilize 25 μg/ml anti-Fc polyclonal antibody (Jackson ImmunoResearch, West Grove, Pa.) prepared in 10 mM sodium acetate buffer (pH 4.5) to the surface of a ProteOn™ GLC biosensor chip (Bio-Rad, Hercules, Calif.) pre-activated with 20 mM EDAC (1-ethyl-3-(3-dimethylaminopropyl)carbodiimide hydrochloride) and 5 mM Sulfo-NHS (N-hydroxysulfosuccinimide) at a density of ˜200-600 resonance units (RU). 15B2GL, I09, L15, P10, N22, M02, and J6M0 were subsequently injected at a concentration of 1 μg/ml for capture by the immobilized anti-Fc polyclonal antibody. The sensorgram was recorded by flowing two-fold serial dilutions of sBCMA prepared in PBS (pH 7.4) with 0.005% (v/v) Tween®-20, ranging from 100-6.25 nM, over the captured surface for 150 seconds at 75 μL/minute with dissociation time of 600 seconds. ProteOn™ data analysis software was used to analyze the data.

[10] = target: T2, TACI; test: FACS binding to Ad293 cells stably expressing TACI
Protocol: (§3) Antibodies 4679, 756, and 15B2GL (as described below) were analyzed by FACS to evaluate binding of antibodies to human BCMA, cynomolgus monkey BCMA, TACI, and BAFF-R using recombinant forms of the receptors stably expressed on Ad293 cells. Binding assays were performed by incubating antibodies 4679, 756, and 15B2GL with 200,000 cells at 4° C. for 45 minutes followed by two washes with PBS+2% FBS. Cells were then incubated with Alexa-Fluor® 647-labeled secondary antibodies at 4° C., followed by two washes in PBS+2% FBS. Anti-BAFF-R, anti-TACI, and anti-human BCMA-APC labeled antibodies were added according to manufacturer's recommended dilution in control wells. Cells were resuspended in 200 uL PBS+2% FBS+DAPI and antibody binding to live cells was analyzed using a Becton Dickinson™ Biosciences LSRII cytometer.

[11] = target: T3, BAFF-R; test: FACS binding to Ad293 cells stably expressing BAFF-R
Protocol: as §3

[12] = system: H929 multiple myeloma cells; test: Internalization by FACS on H929 cells; type: cell-based; details: compared to J6M0 and the LO antibodies
Protocol: The ability of the 15B2GL antibody and LO clones of 15B2GL to bind, internalize, and kill H929 multiple myeloma cells in vitro was assessed using Fab-ZAP and by FACS binding to endogenous BCMA expressed on cell lines as described above. Briefly, antibodies were incubated with 200,000 cells for 30 minutes at 4° C. followed by two washes with PBS+2% FBS. Cells were resuspended in 100 uL cold PBS+2% FBS and kept at 4° C. At certain timepoints, cells were washed and resuspended in warm RPMI+10% FBS and placed into a 37° C. incubator, 5% CO2. At the end of the experiment, cells were washed and then incubated with Alexa-Fluor® 647-labeled secondary antibodies at 4° C., followed by two washes in PBS+2% FBS. Cells were resuspended in 200 μL PBS+2% FBS+DAPI and antibody binding to live cells was analyzed using a Becton Dickinson Biosciences LSRII cytometer.

[13] = system: cynomolgus monkey BCMA; test: FACS binding to Ad293 cells stably expressing cynomolgus BCMA; details: Ad293 cells expressing cynoBCMA
Protocol: as §3

Molecule	tumor regrowth [1]	colonies killed / reduction in colony formation ([2]; patient sample MM263, 400 ng/mL) [%]	colonies killed / reduction in colony formation ([2]; patient sample MM276, 400 ng/mL) [%]	colonies killed / reduction in colony formation ([2]; patient sample MM277, 400 ng/mL) [%]	colonies killed / reduction in colony formation ([2]; patient sample MM284, 400 ng/mL) [%]	tumor regrowth [3]	tumor cells killed (average) [4] [%]	tumor regrowth [5]	IC50 [6] [µg/mL]	IC50 [7] [µg/mL]	tumor regrowth [8]	Koff [9]	Kon [9]	Binding to TACI [10]	Binding to BAFF-R [11]	Internalization [12]	Cynomolgus cross-reactivity [13]
15B2GL-SG3249: ADC: 15B2GL monoclonal antibody site-specifically conjugated to the PBD payload SG3249 (conjugate) VH: EVQLVESGGGLVKPGGSLRLSCAASGFTFRSYSMNWVRQAPGKGLEWVSSISGSSNYIYYADSVKGRFTISRDNAKNSLYLQMNSLRAEDTAVYYCARGGNYYVEYFQYWGQGTLVTVSS VL: EIVLTQSPGTLSLSPGERATLSCRASQYISSNYLAWYQQKPGQAPRLLIYGASNRATGIPDRFSGSGSGTDFTLTISRLEPEDFAVYYCQQYGSSPITFGQGTKLEIK	no evidence of tumor regrowth	100	87.5	91	100	no evidence of tumor regrowth	95	no evidence of tumor regrowth	>0.5	>0.5	no evidence of tumor regrowth	–	–	–	–	–	–
15B2GL: germline form of anti-BCMA monoclonal antibody 15B2; VH SEQ ID NO: 7, VL SEQ ID NO: 8 (antibody, V domains shown) VH: EVQLVESGGGLVKPGGSLRLSCAASGFTFRSYSMNWVRQAPGKGLEWVSSISGSSNYIYYADSVKGRFTISRDNAKNSLYLQMNSLRAEDTAVYYCARGGNYYVEYFQYWGQGTLVTVSS VL: EIVLTQSPGTLSLSPGERATLSCRASQYISSNYLAWYQQKPGQAPRLLIYGASNRATGIPDRFSGSGSGTDFTLTISRLEPEDFAVYYCQQYGSSPITFGQGTKLEIK	–	–	–	–	–	–	–	–	–	–	–	2.27E−02	3.73E+05	did not bind	did not bind	unique and rapid internalization	cynomolgus cross-reactive; also recorded: cyno-cross reactive
